Data as given in US20060204957A1 (published 2006).

T1: bifunctional ATP sulfurylase/adenosine 5'-phosphosulfate (APS) kinase (UniProt O43252 1-624, limits assumed)
T1 construct: Two-hybrid isolate
T1 sequence (looked up): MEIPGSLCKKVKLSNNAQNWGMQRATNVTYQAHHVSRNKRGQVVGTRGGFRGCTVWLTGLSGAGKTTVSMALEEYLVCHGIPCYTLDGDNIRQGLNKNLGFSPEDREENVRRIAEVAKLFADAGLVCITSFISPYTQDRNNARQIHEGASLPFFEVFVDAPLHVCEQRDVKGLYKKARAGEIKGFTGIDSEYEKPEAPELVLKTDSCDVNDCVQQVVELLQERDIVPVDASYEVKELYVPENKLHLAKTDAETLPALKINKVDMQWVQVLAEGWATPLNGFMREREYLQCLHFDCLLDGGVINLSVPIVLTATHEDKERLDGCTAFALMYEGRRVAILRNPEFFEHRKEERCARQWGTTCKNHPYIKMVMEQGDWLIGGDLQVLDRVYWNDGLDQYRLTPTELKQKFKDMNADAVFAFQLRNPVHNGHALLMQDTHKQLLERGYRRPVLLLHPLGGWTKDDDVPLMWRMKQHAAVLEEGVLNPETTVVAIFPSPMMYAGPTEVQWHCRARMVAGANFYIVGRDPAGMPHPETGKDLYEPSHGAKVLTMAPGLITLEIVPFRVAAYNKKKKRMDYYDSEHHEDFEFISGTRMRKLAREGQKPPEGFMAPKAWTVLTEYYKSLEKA

T2: Estrogen Receptor α (ER) (UniProt P03372 1-595)
T2 construct: Endogenous intracellular receptor in breast cancer cell lysates, and ER where no construct is named; also called ERα; endogenous ER
T2 sequence (looked up): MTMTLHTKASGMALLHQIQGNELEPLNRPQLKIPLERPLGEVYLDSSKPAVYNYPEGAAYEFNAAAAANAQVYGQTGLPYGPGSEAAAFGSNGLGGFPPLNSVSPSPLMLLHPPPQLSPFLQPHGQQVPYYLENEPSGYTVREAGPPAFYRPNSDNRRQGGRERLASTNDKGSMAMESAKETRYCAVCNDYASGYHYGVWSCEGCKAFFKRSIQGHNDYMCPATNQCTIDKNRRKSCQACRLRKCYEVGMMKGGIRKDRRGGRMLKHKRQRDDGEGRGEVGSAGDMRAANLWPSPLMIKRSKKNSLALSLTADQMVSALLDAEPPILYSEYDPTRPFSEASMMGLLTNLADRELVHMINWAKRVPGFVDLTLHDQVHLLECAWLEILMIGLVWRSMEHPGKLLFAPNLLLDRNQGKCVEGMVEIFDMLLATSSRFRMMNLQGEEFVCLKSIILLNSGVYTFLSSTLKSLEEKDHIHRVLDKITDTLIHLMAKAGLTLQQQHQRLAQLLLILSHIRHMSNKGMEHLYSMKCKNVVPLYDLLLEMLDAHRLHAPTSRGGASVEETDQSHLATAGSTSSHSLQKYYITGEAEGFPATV

T3: GAD-ERα (UniProt P03372 1-536)
T3 construct: range 1-536; Yeast two-hybrid prey; also called GAD-ERα amino acids 1-536
T3 sequence (looked up): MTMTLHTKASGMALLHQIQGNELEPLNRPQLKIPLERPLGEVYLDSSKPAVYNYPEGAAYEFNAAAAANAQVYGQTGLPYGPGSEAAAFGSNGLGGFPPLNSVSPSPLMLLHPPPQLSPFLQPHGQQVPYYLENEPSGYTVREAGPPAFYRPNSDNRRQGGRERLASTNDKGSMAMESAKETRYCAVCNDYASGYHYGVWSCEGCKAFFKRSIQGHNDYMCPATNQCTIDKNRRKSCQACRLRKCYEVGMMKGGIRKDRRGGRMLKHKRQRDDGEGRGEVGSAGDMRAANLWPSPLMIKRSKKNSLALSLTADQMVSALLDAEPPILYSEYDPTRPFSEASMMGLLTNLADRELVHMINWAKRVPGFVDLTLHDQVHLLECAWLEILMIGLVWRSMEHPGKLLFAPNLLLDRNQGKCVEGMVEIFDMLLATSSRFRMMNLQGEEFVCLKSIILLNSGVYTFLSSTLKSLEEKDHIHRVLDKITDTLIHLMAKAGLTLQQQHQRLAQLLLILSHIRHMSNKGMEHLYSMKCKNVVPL

B1: MTA1s (other)
chain: MAANMYRVGDYVYFENSSSNPYLIRRIEELNKTANGNVEAKVVCFYRRRDISSTLIALADKHATLSVCYKAGPGADNGEEGEIEEEMENPEMVDLPEKLKHQLRHRELFLSRQLESLPATHIRGKCSVTLLNETESLKSYLEREDFFFYSLVYDPQQKTLLADKGEIRVGNRYQADITDLLKEGEEDGRDQSRLETQVWEAHNPLTDKQIDQFLVVARSVGTFARALDCSSSVRQPSLHMSAAAASRDITLFHAMDTLHKNIYDISKAISALVPQGGPVLCRDEMEEWSASEANLFEEALEKYGKDFTDIQQDFLPWKSLTSIIEYYYMWKTTDRYVQQKRLKAAEAESKLKQVYIPNYNKPNPNQISVNNVKAGVVNGTGAPGQSPGAGRACESCYMSSLRILLDILEEIWWLENANPVRWREARTKPQ
notes: also called MTA1s (short); S2 clone
B2: LMO4 (other, UniProt P61968 1-165, looked up)
chain: MVNPGSSSQPPPVTAGSLSWKRCAGCGGKIADRFLLYAMDSYWHSRCLKCSCCQAQLGDIGTSCYTKSGMILCRNDYIRLFGNSGACSACGQSIPASELVMRAQGNVYHLKCFTCSTCRNRLVPGDRFHYINGSLFCEHDRPTALINGHLNSLQSNPLLPDQKVC
notes: Two-hybrid isolate; also called LIM 04; LIM04
B3: GST-AF2 domain of the ER (receptor, UniProt P03372 282-595, looked up)
chain: SAGDMRAANLWPSPLMIKRSKKNSLALSLTADQMVSALLDAEPPILYSEYDPTRPFSEASMMGLLTNLADRELVHMINWAKRVPGFVDLTLHDQVHLLECAWLEILMIGLVWRSMEHPGKLLFAPNLLLDRNQGKCVEGMVEIFDMLLATSSRFRMMNLQGEEFVCLKSIILLNSGVYTFLSSTLKSLEEKDHIHRVLDKITDTLIHLMAKAGLTLQQQHQRLAQLLLILSHIRHMSNKGMEHLYSMKCKNVVPLYDLLLEMLDAHRLHAPTSRGGASVEETDQSHLATAGSTSSHSLQKYYITGEAEGFPATV
notes: domain: AF2 domain; Immobilized on glutathione-sepharose beads; also called AF2 domain of ERα; not shown: glutathione S-transferase
B4: Casein Kinase 1, γ2 (enzyme)
chain: not shown
notes: Two-hybrid isolate; also called clone S55-1
B5: T7-MTA1sstop (other, not shown: small tags and cut ends)
chain: MAANMYRVGDYVYFENSSSNPYLIRRIEELNKTANGNVEAKVVCFYRRRDISSTLIALADKHATLSVCYKAGPGADNGEEGEIEEEMENPEMVDLPEKLKHQLRHRELFLSRQLESLPATHIRGKCSVTLLNETESLKSYLEREDFFFYSLVYDPQQKTLLADKGEIRVGNRYQADITDLLKEGEEDGRDQSRLETQVWEAHNPLTDKQIDQFLVVARSVGTFARALDCSSSVRQPSLHMSAAAASRDITLFHAMDTLHKNIYDISKAISALVPQGGPVLCRDEMEEWSASEANLFEEALEKYGKDFTDIQQDFLPWKSLTSIIEYYYMWKTTDRYVQQKRLKAAEAESKLKQVYIPNYNKPNPNQISVNNVKAGVVNGTGAPGQSPGAGRACESCY
notes: Expressed in MCF-7 cells for immunoprecipitation with T7-mAb; also called T7-tagged MTA1s-stop
B6: MTA1s-stop (other)
chain: B5 chain
B7: T7-MTA1sdel (other, not shown: small tags and cut ends)
chain: MAANMYRVGDYVYFENSSSNPYLIRRIEELNKTANGNVEAKVVCFYRRRDISSTLIALADKHATLSVCYKAGPGADNGEEGEIEEEMENPEMVDLPEKLKHQLRHRELFLSRQLESLPATHIRGKCSVTLLNETESLKSYLEREDFFFYSLVYDPQQKTLLADKGEIRVGNRYQADITDLLKEGEEDGRDQSRLETQVWEAHNPLTDKQIDQFLVVARSVGTFARALDCSSSVRQPSLHMSAAAASRDITLFHAMDTLHKNIYDISKAISALVPQGGPVLCRDEMEEWSASEANLFEEALEKYGKDFTDIQQDFLPWKSLTSIIEYYYMWKTTDRYVQQKRLKAAEAESKLKQVYIPNYNKPNPNQISVNNVKAGVVNGTGAPGQSPGAGRACESCYMSSDILEEIWWLENANPVRWREARTKPQ
notes: Expressed in MCF-7 cells for immunoprecipitation with T7-mAb; also called T7-tagged MTA1s-del
B8: MTA1s-del (other)
chain: B7 chain

Columns and labels:
[1] = target: T4, Homologs to eukaryotic translation initiation factor 3, subunit 6 (48 kD) (UniProt P60228 1-445, limits assumed); assay: FIG. 14 legend
T4 construct: Two-hybrid isolate; also called Cone S 64-1

[2] = target: T1, bifunctional ATP sulfurylase/adenosine …; assay: yeast two-hybrid screen for MTA1s-interacting proteins
MTA1s = target: B1; assay: FIG. 14 legend
MTA1s-stop = target: B6; assay: GST pull-down (FIG. 4C)
MTA1s-del = target: B8; assay: GST pull-down (FIG. 4C)
Estrogen Receptor α (ER) = target: T2, Estrogen Receptor α (ER); assay: immunoprecipitation with T7-mAb, immunoblot for ERα (FIG. 4D)
GAD-ERα = target: T3, GAD-ERα; assay: yeast two-hybrid (FIG. 4B)

T4 sequence (P60228 whole entry): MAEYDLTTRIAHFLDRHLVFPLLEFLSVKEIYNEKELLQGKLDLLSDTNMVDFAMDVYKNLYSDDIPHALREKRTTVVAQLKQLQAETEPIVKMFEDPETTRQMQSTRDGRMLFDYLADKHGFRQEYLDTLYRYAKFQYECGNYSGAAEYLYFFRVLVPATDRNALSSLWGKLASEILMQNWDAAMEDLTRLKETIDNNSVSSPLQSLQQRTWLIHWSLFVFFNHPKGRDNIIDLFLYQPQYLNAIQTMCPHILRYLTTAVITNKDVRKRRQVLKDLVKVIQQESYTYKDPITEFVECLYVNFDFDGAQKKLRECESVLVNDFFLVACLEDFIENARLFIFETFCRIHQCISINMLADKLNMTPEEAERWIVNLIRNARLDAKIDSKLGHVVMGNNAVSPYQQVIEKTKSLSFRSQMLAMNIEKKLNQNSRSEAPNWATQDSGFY

Binder: B1
binding result [1]: binds
binding result [2]: binds

Binder: B2
binding result (MTA1s): binds

Binder: B3
binding result (MTA1s-stop): no binding
binding result (MTA1s-del): no binding

Binder: B4
binding result (MTA1s): binds

Binder: B5
binding result (Estrogen Receptor α (ER)): no binding

Binder: B6
binding result (GAD-ERα): no binding

Binder: B7
binding result (Estrogen Receptor α (ER)): no binding

Binder: B8
binding result (GAD-ERα): no binding
